# Several values for one entry are separate records, joined by “and”; a condition that tells them apart may be missing. Equal values may be shown once.
# Tests used:
# [1] = target: REGγ(K188A) (UniProt P61289)
# [2] = target: REGγ(K188E) (UniProt P61289)
# [3] = target: REGγ(K188C) (UniProt P61289)
# [4] = target: REGγ(K188H) (UniProt P61289)
# [5] = target: REGα (UniProt Q06323)
# [6] = target: REGγ(K188F) (UniProt P61289)
# [7] = target: REGγ(K188D) (UniProt P61289)
# [8] = target: REGγ(K188N) (UniProt P61289)
# REGγ(K188N), sequence (P61289 whole entry K188N): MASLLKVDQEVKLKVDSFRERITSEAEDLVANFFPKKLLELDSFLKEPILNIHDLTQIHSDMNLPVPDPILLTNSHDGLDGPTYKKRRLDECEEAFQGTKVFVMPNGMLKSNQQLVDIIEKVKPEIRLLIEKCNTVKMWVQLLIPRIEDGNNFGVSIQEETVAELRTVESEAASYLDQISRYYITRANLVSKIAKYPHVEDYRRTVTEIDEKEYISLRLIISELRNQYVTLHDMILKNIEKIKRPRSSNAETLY
# [9] = target: REGγ(K188Q) (UniProt P61289)
# REGγ(K188Q), sequence (P61289 whole entry K188Q): as the sequence (P61289 whole entry K188N) above, with N188Q counted along it
# [10] = target: REGγ(K188P) (UniProt P61289)
# REGγ(K188P), sequence (P61289 whole entry K188P): as the sequence (P61289 whole entry K188N) above, with N188P counted along it
# [11] = target: REGα/β (UniProt Q06323)
# REGα/β, sequence (Q06323 whole entry, chain 1 of 2): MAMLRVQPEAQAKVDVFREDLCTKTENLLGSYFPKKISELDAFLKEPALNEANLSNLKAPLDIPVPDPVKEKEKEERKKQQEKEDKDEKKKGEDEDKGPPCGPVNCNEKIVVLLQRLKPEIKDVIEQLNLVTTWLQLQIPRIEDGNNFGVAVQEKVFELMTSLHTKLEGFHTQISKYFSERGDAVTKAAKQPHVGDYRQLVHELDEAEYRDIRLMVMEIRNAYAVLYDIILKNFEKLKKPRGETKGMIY
# REGα/β, sequence (chain, as listed by the source, chain 2 of 2): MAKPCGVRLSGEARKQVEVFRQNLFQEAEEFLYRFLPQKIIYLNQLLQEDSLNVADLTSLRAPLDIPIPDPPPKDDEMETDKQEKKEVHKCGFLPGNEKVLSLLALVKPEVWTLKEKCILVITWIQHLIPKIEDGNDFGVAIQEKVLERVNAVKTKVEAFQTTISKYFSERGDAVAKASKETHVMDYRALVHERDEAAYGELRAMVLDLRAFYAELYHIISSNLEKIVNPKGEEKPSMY
# [12] = target: REGγ (wild-type) (UniProt P61289)
# REGγ (wild-type), sequence (P61289 whole entry): as the sequence (P61289 whole entry K188N) above, with N188K counted along it
# [13] = target: REGγ(K188I) (UniProt P61289)
# REGγ(K188I), sequence (P61289 whole entry K188I): as the sequence (P61289 whole entry K188N) above, with N188I counted along it
# [14] = target: REGγ(K188R) (UniProt P61289)
# REGγ(K188R), sequence (P61289 whole entry K188R): as the sequence (P61289 whole entry K188N) above, with N188R counted along it
# [15] = target: REGγ(K188S) (UniProt P61289)
# REGγ(K188S), sequence (P61289 whole entry K188S): as the sequence (P61289 whole entry K188N) above, with N188S counted along it
# REGγ(K188F), sequence (P61289 whole entry K188F): as the sequence (P61289 whole entry K188N) above, with N188F counted along it
# REGα, sequence (Q06323 whole entry): as the sequence (Q06323 whole entry, chain 1 of 2) above
# REGγ(K188D), sequence (P61289 whole entry K188D): as the sequence (P61289 whole entry K188N) above, with N188D counted along it
# REGγ(K188C), sequence (P61289 whole entry K188C): as the sequence (P61289 whole entry K188N) above, with N188C counted along it
# REGγ(K188H), sequence (P61289 whole entry K188H): as the sequence (P61289 whole entry K188N) above, with N188H counted along it
# REGγ(K188A), sequence (P61289 whole entry K188A): as the sequence (P61289 whole entry K188N) above, with N188A counted along it
# REGγ(K188E), sequence (P61289 whole entry K188E): as the sequence (P61289 whole entry K188N) above, with N188E counted along it
substance,measurement,setting,value
20S proteasome (human red blood cell proteasomes),"Stimulation of cleavage (x-fold), LLE-βNA",[1],6 x-fold
same,"Stimulation of cleavage (x-fold), LLVY-MCA",[1],6 x-fold
same,"Stimulation of cleavage (x-fold), LRR-MCA",[1],13 x-fold
same,"% Degraded, substrate F1-EPQPQ (SEQ ID NO: 15), 5 hr",[2],80%
same,"% Degraded, substrate F1-KSQPQ (SEQ ID NO: 16), 5 hr",[2],80%
same,"% Degraded, substrate F1-QHQ, 5 hr",[2],50%
same,"% Degraded, substrate F1-QPQ, 5 hr",[2],50%
same,"% Degraded, substrate F1-QQQ, 5 hr",[2],> 95%
same,"Stimulation of cleavage (x-fold), AAF-MCA",[2],4 x-fold
same,"Stimulation of cleavage (x-fold), DEVD(SEQ ID NO: 8)-MCA",[2],8 x-fold
same,"Stimulation of cleavage (x-fold), FSR-MCA",[2],7 x-fold
same,"Stimulation of cleavage (x-fold), IEGR(SEQ ID NO: 5)-MCA",[2],2 x-fold
same,"Stimulation of cleavage (x-fold), IETD(SEQ ID NO: 6)-MCA",[2],21 x-fold
same,"Stimulation of cleavage (x-fold), LGHD(SEQ ID NO: 7)-MCA",[2],10 x-fold
same,"Stimulation of cleavage (x-fold), LLE-βNA",[2],9 x-fold
same,"Stimulation of cleavage (x-fold), LLVY(SEQ ID NO: 1)-MCA",[2],14 x-fold
same,"Stimulation of cleavage (x-fold), LLVY-MCA",[2],14 x-fold
same,"Stimulation of cleavage (x-fold), LRR-MCA",[2],15 x-fold
same,"Stimulation of cleavage (x-fold), LY-MCA",[2],3 x-fold
same,"Stimulation of cleavage (x-fold), VLK-MCA",[2],6 x-fold
same,"Stimulation of cleavage (x-fold), YVAD(SEQ ID NO: 9)-MCA",[2],7 x-fold
same,hydrolysis of the 21-residue peptide P21 by the proteasome (HPLC),[2],REGγ(K188E or D) and REGα markedly increased sunstrate consumption
same,"Stimulation of cleavage (x-fold), LLE-βNA",[3],5 x-fold
same,"Stimulation of cleavage (x-fold), LLVY-MCA",[3],6 x-fold
same,"Stimulation of cleavage (x-fold), LRR-MCA",[3],13 x-fold
same,"Stimulation of cleavage (x-fold), LLE-βNA",[4],4 x-fold
same,"Stimulation of cleavage (x-fold), LLVY-MCA",[4],5 x-fold
same,"Stimulation of cleavage (x-fold), LRR-MCA",[4],14 x-fold
same,"Stimulation of cleavage (x-fold), AAF-MCA",[5],6 x-fold
same,"Stimulation of cleavage (x-fold), DEVD(SEQ ID NO: 8)-MCA",[5],10 x-fold
same,"Stimulation of cleavage (x-fold), FSR-MCA",[5],10 x-fold
same,"Stimulation of cleavage (x-fold), IEGR(SEQ ID NO: 5)-MCA",[5],3 x-fold
same,"Stimulation of cleavage (x-fold), IETD(SEQ ID NO: 6)-MCA",[5],30 x-fold
same,"Stimulation of cleavage (x-fold), LGHD(SEQ ID NO: 7)-MCA",[5],11 x-fold
same,"Stimulation of cleavage (x-fold), LLE-βNA",[5],9 x-fold
same,"Stimulation of cleavage (x-fold), LLVY(SEQ ID NO: 1)-MCA",[5],16 x-fold
same,"Stimulation of cleavage (x-fold), LLVY-MCA",[5],16 x-fold
same,"Stimulation of cleavage (x-fold), LRR-MCA",[5],16 x-fold
same,"Stimulation of cleavage (x-fold), LY-MCA",[5],5 x-fold
same,"Stimulation of cleavage (x-fold), VLK-MCA",[5],7 x-fold
same,"Stimulation of cleavage (x-fold), YVAD(SEQ ID NO: 9)-MCA",[5],9 x-fold
same,hydrolysis of the 21-residue peptide P21 by the proteasome (HPLC),[5],REGγ(K188E or D) and REGα markedly increased sunstrate consumption
same,"Stimulation of cleavage (x-fold), LLE-βNA",[6],4 x-fold
same,"Stimulation of cleavage (x-fold), LLVY-MCA",[6],4 x-fold
same,"Stimulation of cleavage (x-fold), LRR-MCA",[6],13 x-fold
same,"Stimulation of cleavage (x-fold), AAF-MCA",[7],4 x-fold
same,"Stimulation of cleavage (x-fold), DEVD(SEQ ID NO: 8)-MCA",[7],9 x-fold
same,"Stimulation of cleavage (x-fold), FSR-MCA",[7],7 x-fold
same,"Stimulation of cleavage (x-fold), IEGR(SEQ ID NO: 5)-MCA",[7],2 x-fold
same,"Stimulation of cleavage (x-fold), IETD(SEQ ID NO: 6)-MCA",[7],26 x-fold
same,"Stimulation of cleavage (x-fold), LGHD(SEQ ID NO: 7)-MCA",[7],11 x-fold
same,"Stimulation of cleavage (x-fold), LLE-βNA",[7],9 x-fold
same,"Stimulation of cleavage (x-fold), LLVY(SEQ ID NO: 1)-MCA",[7],14 x-fold
same,"Stimulation of cleavage (x-fold), LLVY-MCA",[7],14 x-fold
same,"Stimulation of cleavage (x-fold), LRR-MCA",[7],15 x-fold
same,"Stimulation of cleavage (x-fold), LY-MCA",[7],3 x-fold
same,"Stimulation of cleavage (x-fold), VLK-MCA",[7],6 x-fold
same,"Stimulation of cleavage (x-fold), YVAD(SEQ ID NO: 9)-MCA",[7],8 x-fold
same,hydrolysis of the 21-residue peptide P21 by the proteasome (HPLC),[7],REGγ(K188E or D) and REGα markedly increased sunstrate consumption
same,"Stimulation of cleavage (x-fold), LLE-βNA",[8],5 x-fold
same,"Stimulation of cleavage (x-fold), LLVY-MCA",[8],5 x-fold
same,"Stimulation of cleavage (x-fold), LRR-MCA",[8],14 x-fold
same,"Stimulation of cleavage (x-fold), LLE-βNA",[9],5 x-fold
same,"Stimulation of cleavage (x-fold), LLVY-MCA",[9],5 x-fold
same,"Stimulation of cleavage (x-fold), LRR-MCA",[9],14 x-fold
same,"Stimulation of cleavage (x-fold), LLE-βNA",[10],1 x-fold
same,"Stimulation of cleavage (x-fold), LLVY-MCA",[10],1 x-fold
same,"Stimulation of cleavage (x-fold), LRR-MCA",[10],12 x-fold
same,"% Degraded, substrate F1-EPQPQ (SEQ ID NO: 15), 5 hr",[11],55%
same,"% Degraded, substrate F1-KSQPQ (SEQ ID NO: 16), 5 hr",[11],85%
same,"% Degraded, substrate F1-QHQ, 5 hr",[11],80%
same,"% Degraded, substrate F1-QPQ, 5 hr",[11],85%
same,"% Degraded, substrate F1-QQQ, 5 hr",[11],85%
same,"% Degraded, substrate F1-EPQPQ (SEQ ID NO: 15), 5 hr",[12],5%
same,"% Degraded, substrate F1-KSQPQ (SEQ ID NO: 16), 5 hr",[12],15%
same,"% Degraded, substrate F1-QHQ, 5 hr",[12],5%
same,"% Degraded, substrate F1-QPQ, 5 hr",[12],5%
same,"% Degraded, substrate F1-QQQ, 5 hr",[12],15%
same,"Stimulation of cleavage (x-fold), AAF-MCA",[12],1 x-fold
same,"Stimulation of cleavage (x-fold), DEVD(SEQ ID NO: 8)-MCA",[12],2 x-fold
same,"Stimulation of cleavage (x-fold), FSR-MCA",[12],7 x-fold
same,"Stimulation of cleavage (x-fold), IEGR(SEQ ID NO: 5)-MCA",[12],1 x-fold
same,"Stimulation of cleavage (x-fold), IETD(SEQ ID NO: 6)-MCA",[12],1 x-fold
same,"Stimulation of cleavage (x-fold), LGHD(SEQ ID NO: 7)-MCA",[12],1 x-fold
same,"Stimulation of cleavage (x-fold), LLE-βNA",[12],0.6 x-fold
same,"Stimulation of cleavage (x-fold), LLVY(SEQ ID NO: 1)-MCA",[12],0.4 x-fold
same,"Stimulation of cleavage (x-fold), LLVY-MCA",[12],0.4 x-fold
same,"Stimulation of cleavage (x-fold), LRR-MCA",[12],12 x-fold and 11 x-fold
same,"Stimulation of cleavage (x-fold), LY-MCA",[12],2 x-fold
same,"Stimulation of cleavage (x-fold), VLK-MCA",[12],5 x-fold
same,"Stimulation of cleavage (x-fold), YVAD(SEQ ID NO: 9)-MCA",[12],0.9 x-fold
same,hydrolysis of the 21-residue peptide P21 by the proteasome (HPLC),[12],Wild-type REGγ decreased hydrolysis of P21 by the proteasome
same,"Stimulation of cleavage (x-fold), LLE-βNA",[13],3 x-fold
same,"Stimulation of cleavage (x-fold), LLVY-MCA",[13],2 x-fold
same,"Stimulation of cleavage (x-fold), LRR-MCA",[13],12 x-fold
same,"Stimulation of cleavage (x-fold), LLE-βNA",[14],0.7 x-fold
same,"Stimulation of cleavage (x-fold), LLVY-MCA",[14],0.7 x-fold
same,"Stimulation of cleavage (x-fold), LRR-MCA",[14],10 x-fold
same,"Stimulation of cleavage (x-fold), LLE-βNA",[15],3 x-fold
same,"Stimulation of cleavage (x-fold), LLVY-MCA",[15],3 x-fold
same,"Stimulation of cleavage (x-fold), LRR-MCA",[15],14 x-fold

# From patent US20040233833
